The target in data set [1] is T1, IRF4-C99R DBD;JUNB DBD;BATF DBD (human;human;human, UniProt Q15306;P17275;Q16520 20-139;269-329;28-87, C99R||).
T1 sequence 1: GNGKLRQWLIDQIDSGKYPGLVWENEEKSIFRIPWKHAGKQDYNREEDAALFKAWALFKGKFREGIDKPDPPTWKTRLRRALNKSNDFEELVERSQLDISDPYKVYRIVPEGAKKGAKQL
T1 sequence 2: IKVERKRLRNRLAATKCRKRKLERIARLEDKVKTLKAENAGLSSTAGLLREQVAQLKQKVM
T1 sequence 3: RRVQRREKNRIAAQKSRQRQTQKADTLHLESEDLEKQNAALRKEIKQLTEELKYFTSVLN
Kind of data set: EMSA; IRF4 composite complex abolished; EMSA: 10 mM HEPES pH 7.9, 70 mM KCl, 5 mM DTT, 1 mM EDTA, 2.5 mM MgCl2, 4% Ficoll, 0.5 mg/ml BSA, 0.1 ug/ml poly(dI-dC); 3-5 ug nuclear extract; temperature not stated. Particulars: protein: recombinant;recombinant;recombinant; copies: 1;1;1; label: 32P-dCTP Klenow end label; 5' overhang 2 nt before Klenow labeling.

Data set [2] deals with T1, IRF4-C99R DBD;JUNB DBD;BATF DBD. As to the kind of experiment: EMSA; short or long probe not certain; EMSA: 10 mM HEPES pH 7.9, 70 mM KCl, 5 mM DTT, 1 mM EDTA, 2.5 mM MgCl2, 4% Ficoll, 0.5 mg/ml BSA, 0.1 ug/ml poly(dI-dC); 3-5 ug nuclear extract; temperature not stated. Particulars: protein: recombinant;recombinant;recombinant; copies: 1;1;1; label: 32P-dCTP Klenow end label; 5' overhang 4 nt before Klenow labeling.

Data set [3] deals with T2, IRF4-WT DBD;JUNB DBD;BATF DBD (human;human;human, UniProt Q15306;P17275;Q16520 20-139;269-329;28-87, ||).
T2 sequence 1: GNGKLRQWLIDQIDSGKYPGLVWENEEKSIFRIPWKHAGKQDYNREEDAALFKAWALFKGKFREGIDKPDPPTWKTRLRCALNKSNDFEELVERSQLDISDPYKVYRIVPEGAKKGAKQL
T2 sequence 2: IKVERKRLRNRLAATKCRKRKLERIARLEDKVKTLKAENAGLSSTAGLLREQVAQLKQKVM
T2 sequence 3: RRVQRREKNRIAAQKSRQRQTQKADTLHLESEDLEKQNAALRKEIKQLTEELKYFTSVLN
The description is as above. The note with it: protein: recombinant;recombinant;recombinant; copies: 1;1;1; label: 32P-dCTP Klenow end label; 5' overhang 4 nt before Klenow labeling.

B1: AICE2 (Bcl11b) short, IRF motif tAcA (dsDNA)
DNA 1: AGTGCATACATGAGTCAGAGATC
DNA 2: AGGATCTCTGACTCATGTATGCA
For B1, the binding result in data set [1] is reported as “no binding”.

B2: AICE2FLIP short IRFmut (dsDNA)
DNA 1: AGTGCATGTATGAGTCAGAGATC
DNA 2: AGGATCTCTGACTCATACATGCA
For the molecule B2, the binding result in data set [1] is reported as “no binding”.

B3: AICE2 (Bcl11b) (dsDNA)
DNA 1: AGCTTAGTGCAGAAATGAGTCAGAGATCAAAGAAG
DNA 2: AGCTCTTCTTTGATCTCTGACTCATTTCTGCACTA
Turning to B3, the binding result in data set [2] is on record as “binds”.

B4: AICE2FLIP (AICE2 5'TTTC) (dsDNA)
DNA 1: AGCTTAGTGCATTTCTGAGTCAGAGATCAAAGAAG
DNA 2: AGCTCTTCTTTGATCTCTGACTCAGAAATGCACTA
With B4, the binding result is “binds” in data set [2] and “no binding” in data set [3].

The values are drawn from publication PMC10630337, “Transcriptional reprogramming by mutated IRF4 in lymphoma”.
